Assay [1] has as its target T1, rdVEGF163 (canine/dog; R&D 1603-CV-010/CF) (Canine/Dog, UniProt Q9MYV3-3 27-190, limits assumed).
T1 construct: Bought protein; also called Dog VEGF-A
T1 sequence (looked up): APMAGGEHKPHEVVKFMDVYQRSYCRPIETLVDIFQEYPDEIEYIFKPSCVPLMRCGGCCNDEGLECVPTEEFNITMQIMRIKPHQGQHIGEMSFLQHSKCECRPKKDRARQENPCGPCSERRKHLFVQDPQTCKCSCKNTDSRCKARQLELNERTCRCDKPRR
Kind of assay: ELISA on coated dog VEGF-A.

Assay [2] has as its target T2, Recombinant human VEGF165 (Peprotech, Cat #100-20) (human, UniProt P15692-4 27-191).
T2 construct: Bought protein; also called rhVEGF165; rh VEGF165
Kind of assay: ELISA; target coated at 1 ug/mL, anti-human IgG Fc-HRP detection. The method, then:
First, the binding to rhVEGF-B was tested in comparison with rhVEGF₁₆₅. rhVEGF-B or rhVEGF₁₆₅ was used to coat Corning 9017 medium binding plates at 1 μg/mL and […] per well. […] Donkey anti-human IgG Fcγ-HRP was used for detection. OD450 nm readings were measured by Victor 3.

B1: RO-101 VEGF/ANG-2 bispecific surrobody (bispecific antibody, human IgG1, L234A L235A)
heavy 1: not shown
heavy 2: EVQLVESGGGLVKPGGSLRLSCAASGFTFSSYGMHWVRQAPGKGLEWVAGISADSGDKNYADSVKGRFTISRDNAKNSLYLQMNSLRAEDTAVYYCAKEFISWIYTFDYLDYWGQGTLVTVSSASTKGPSVFPLAPSSKSTSGGTAALGCLVKDYFPEPVTVSWNSGALTSGVHTFPAVLQSSGLYSLSSVVTVPSSSLGTQTYICNVNHKPSNTKVDKKVEPKSCDKTHTCPPCPAPEAAGGPSVFLFPPKPKDTLMISRTPEVTCVVVDVSHEDPEVKFNWYVDGVEVHNAKTKPREEQYNSTYRVVSVLTVLHQDWLNGKEYKCKVSNKALPAPIEKTISKAKGQPREPQVCTLPPSRDELTKNQVSLSCAVKGFYPSDIAVEWESNGQPENNYKTTPPVLDSDGSFFLVSKLTVDKSRWQQGNVFSCSVMHEALHNHYTQKSLSLSPG
light: QPVLHQPPAMSSALGTTIRLTCTLRNDHDIGVYSVYWYQQRPGHPPRFLLRYFSQSDKSQGPQVPPRFSGSKDVARNRGYLSISELQPEDEAMYYCAMGARSSVTHVFGSGTQLTVLSQPKATPSVTLFPPSSEELQANKATLVCLMNDFYPGILTVTWKADGTPITQGVEMTTPSKQSNNKYAASSYLSLTPEQWRSRRSYSCQVMHEGSTVEKTVAPAECS
notes: Format SgG1; also called Sample 1
In the case of B1, the results for the EC50 in assay [1] and in assay [2] were 0.0237 nM and 0.0165 nM, respectively.

(Values after US20250250330A1 (REVOPSIS THERAPEUTICS, published 2025).)
